Positions count from the first letter of the chain named.
T1: mouse IL-18BP (amino acids 31-194), biotinylated (mouse, UniProt Q9Z0M9 29-193, biotin on the AviTag (BirA ligase))
T1 construct: Secreted from Expi293 cells with H7 signal peptide (cleaved); The printed residue range is the same as for the human protein and may not fit the mouse entry; also called mIL-18BP
T1 sequence: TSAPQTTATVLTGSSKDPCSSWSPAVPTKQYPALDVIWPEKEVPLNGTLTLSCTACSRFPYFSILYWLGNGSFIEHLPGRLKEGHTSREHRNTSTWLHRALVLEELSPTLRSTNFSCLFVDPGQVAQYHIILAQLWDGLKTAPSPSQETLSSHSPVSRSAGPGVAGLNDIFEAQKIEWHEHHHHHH

T2: human IL-18Rα ectodomain (amino acids 19-329), biotinylated (human, UniProt Q13478 19-329, biotin on the AviTag (BirA ligase))
T2 construct: range 19-329; Secreted from insect cells with gp67 signal peptide (cleaved); also called hIL-18Rα; IL-18R1
T2 sequence: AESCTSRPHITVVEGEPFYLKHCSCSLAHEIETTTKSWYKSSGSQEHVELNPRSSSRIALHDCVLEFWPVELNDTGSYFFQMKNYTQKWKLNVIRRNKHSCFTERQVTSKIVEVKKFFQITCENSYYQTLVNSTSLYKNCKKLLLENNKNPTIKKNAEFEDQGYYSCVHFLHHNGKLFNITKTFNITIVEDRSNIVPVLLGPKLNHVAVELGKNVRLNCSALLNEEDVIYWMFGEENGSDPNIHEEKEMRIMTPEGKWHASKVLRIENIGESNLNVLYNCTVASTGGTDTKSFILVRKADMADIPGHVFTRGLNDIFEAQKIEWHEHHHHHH

B1: murine decoy-resistant IL-18 variant SEQ ID NO: 64 (ligand)
chain: NFGRLHCTTAVIRNINDQVLFVDKRQPVFEDMTDIDQSASEPQTRLIIYVYTDGRRRGKAVTLSVKDSKMSTLSCKNKIISFEEMDPPENIDDIQSDLIFFQKKVPGHDKMEFESSLYEGHFLACQKEDDAFKLILKKKDENGDKSVMFTLTNLHQS
notes: Engineered variant of mature mouse IL-18; tag and display linker not in chains; also called mE8; E8
B2: human decoy-resistant IL-18 variant SEQ ID NO: 34 (ligand)
chain: YFGKLESKLSVIRNLNDQVLFIDQGNRPLFEDMTDSDCRDNAPRTIFIISTYKDSQPRGKAVTISVKCEKISTLSCENKIISFKEMNPPDNIKDTKSDIIFFQRDVPGHKHKMQFESSSYEGYFLACEKERDLFKLILKKEDELGDRSIMFTVQNED
notes: Engineered variant of mature human IL-18; tag and display linker not in chains; also called hCS1; hCS-1
B3: human decoy-resistant IL-18 variant SEQ ID NO: 52 (ligand)
chain: B2 chain with Y1R, K8R
notes: Engineered variant of mature human IL-18; display linker not in chains; also called hH3
B4: human decoy-resistant IL-18 variant SEQ ID NO: 39 (ligand)
chain: B2 chain with K8R, T51K, S55K, G59A, K60Q, V153I
notes: Engineered variant of mature human IL-18; display linker not in chains; also called hA8
B5: human decoy-resistant IL-18 variant SEQ ID NO: 36 (ligand)
chain: B2 chain with Y1R
notes: Engineered variant of mature human IL-18; tag and display linker not in chains; also called hCS3
B6: human decoy-resistant IL-18 variant SEQ ID NO: 57 (ligand)
chain: B2 chain with Y1R, L5H, K53R, Q103E, D105N, H111Y
notes: Engineered variant of mature human IL-18; display linker not in chains; also called hB9
B7: human decoy-resistant IL-18 variant SEQ ID NO: 37 (ligand)
chain: B2 chain with Y1R, K53R, D105N, H111Y
notes: Engineered variant of mature human IL-18; tag and display linker not in chains; also called hCS4

Columns and labels:
[1] = molecular target: T1, mouse IL-18BP (amino acids 31-194), …; test: yeast binding isotherms and SPR
[2] = molecular target: T2, human IL-18Rα ectodomain (amino acids …); test: on-yeast binding isotherm, flow cytometry; exponent missing in the cell, derived from c3/c4
[3] = molecular target: T2, human IL-18Rα ectodomain (amino acids …); test: on-yeast binding isotherm, flow cytometry; exponent missing in the cell, derived from 20 µM/c4

Binder | Kd [3] [nM] | also measured
B1 |  | Kd [1]: > 1000 nM
B2 |  | Kd [2]: 64.4 nM
B3 | 83.8 | 
B4 | 57.7 | 
B5 |  | Kd [2]: 113 nM
B6 | 127 | 
B7 | 160 | 
